# Reference: patent US12662540B2, “Compositions and methods for inhibition of MICA/B shedding” (DANA-FARBER CANCER INSTITUTE, INC., priority 2017, dated 2026)
# “Also recorded” adds a separate entry of the source.
# B1: 7C6: monoclonal antibody from mice immunized with recombinant MICA α3 domain; parental mIgG2b; VH SEQ ID NO: 7, VL SEQ ID NO: 8 (antibody)
# VH: QIQLVQSGPELKKPGETVKVSCKASGYMFTNYAMNWVKQAPEKGLKWMGWINTHTGDPTYADDFKGRIAFSLETSASTAYLQINNLKNEDTATYFCVRTYGNYAMDYWGQGTSVTVSSAKTTAPSVYPLAPVCGDTTGSSVTLGCLVKGYFPEPVTLTWNSGSLSSGVHTFPAVLQSDLYTLSSSVTVTSS
# VL: DIQMTQTTSSLSASLGDRVTISCSASQDISNYLNWYQQKPDGTVKLLIYDTSILHLGVPSRFSGSGSGTDYSLTISNLEPEDIATYYCQQYSKFPRTFGGGTTLEIK
# modifications: mAb 7C6 heavy chain amino acid sequence; mAb 7C6 light chain amino acid sequence
# Legend:
# [1] = tested on: CT26-MICA; experiment: CT26 metastasis model; format: in vivo, Balb/c mice; conditions: antibody days 1, 2, 7, 14; count day 21
# Description: (§1) Balb/c wild type mice were injected intravenously with 1×10^6 CT26-MICA, and treated with 7C6-mIgG2b or MPC-11 (isotype) administered intraperitoneally on days 1, 2, 7, and 14. Euthanasia was performed on day 21, followed by lung perfusion with 30% Indian ink through the trachea and fixation in Fekete's fixative. That procedure stains the lungs in black, while the metastases remain white, enabling counting of metastases under a stereomicroscope (24).
# as §1, with “stereomicroscope.” for “stereomicroscope (24).”
# [2] = tested on: human NK cells; experiment: Intracellular interferon-γ production by NK cells co-cultured with tumor cells; format: cell-based; conditions: co-culture with tumor cells, antibody 10 μg/ml
# Description: NK cells were co-cultured for 6 hours at a ratio of 5:1 with tumor cells in the presence of Brefeldin-A (Biolegend). After the incubation time, Fc receptors were blocked, cells stained with NK cell markers, stained further with a dead cell marker (Zombie Yellow, Biolegend), and subsequently processed for intracellular interferon-γ labeling. Briefly, cells were fixed with BD Cytofix/Cytoperm™ Fixation and Permeabilization Solution (BD Pharmingen), permeabilized with Permeabilization Wash Buffer (Biolegend), and stained with APC-conjugated anti-human interferon-γ (4S.B3, Biolegend) or appropriate isotype control. Fluorescence spectra were acquired using a LSR Fortessa flow cytometer and analyzed by FlowJo.
# [3] = tested on: B16F10-MICA cells; experiment: B16F10 metastasis model in immunocompetent mice; format: in vivo, C57BL/6 mice
# Description: The B16F10 cells were transduced with the luciferase-based lentiviral vector to express MICA. B16F10-MICA cells (5×10^5) were injected intravenously into C57BL/6 mice through the tail vein. Fewer tumor cells (4×10^5) were injected into NK cell-deficient mice given that the absence of NK cells results in a very large number of metastases. 7C6 or isotype control antibodies (MPC-11 or C1184, BioXcell, which have mIgG2b and mIgG2a isotypes, respectively) were administered intraperitoneally on days 1, 2, 7 and 10 at a dose of 200 μg per mouse. Antibody blockade and depletion were performed as described previously (24). For antibody-based depletion of CD8 T cells or NK cells, 100 μg per mouse of anti-CD8 (5358, BioXcell), anti-NK1.1 (PK136, BioXcell), and anti-asialo(as)GM1 (Wako Chemicals) were given on days −1, 0, and 7. For antibody blockade, anti-NKG2D (HMG2D, BioXcell) or control IgG (MOPC-21) were given at 200 μg per mouse on days −1, 0, 5, 7 and 10. Blood samples were collected at multiple time points by retro-orbital bleeding under isoflurane anesthesia. Mice were euthanized by CO2 inhalation, lungs were perfused with PBS and fixed in formalin solution, and the number of superficial metastases was counted under a stereomicroscope. Histology was performed by the Rodent Histopathology Core of the Dana-Farber/Harvard Cancer Center using lungs that had not been perfused with PBS.
# Macrophages were depleted by intravenous injection of 0.2 ml clodronate liposomes (Encapsula NanoSciences LLC). In the humanized and B16F10-MICA metastasis models, 0.2 ml of clodronate liposomes or control liposomes were injected i.v. (on the same day of tumor cell inoculation and then once weekly).
# [4] = tested on: murine tumor cell lines (B16F10, CT26, Neuro-2a) expressing full-length MICA or MICB; experiment: Shed and surface MICA/MICB in murine tumor cell lines transduced with full-length MICA or MICB; format: cell-based, mouse; conditions: B16F10 cells expressing MICA or MICB; comparison among mAbs
# Source text: B16F10, CT26, Neuro-2a, EL4 and RMA-S cell lines were transduced with lentiviral vector pHAGE-CMV-fullEF1a. MICA (allele 009) cDNA or other inserts were placed between NotI and BamHI cloning sites, 3′ to the EF1α promoter and 5′ to the IRES. ZsGreen or luciferase cDNAs were cloned 3′ to the IRES as fluorescence or bioluminescence reporters, respectively. The vector with the ZsGreen reporter was used to compare expression of cDNAs encoding full length MICA, full-length MICB and secreted MICA (Neuro-2a, RMA-S and/or B16F10 cell lines). CT26, EL4 and B16F10 cell lines were transduced with the vector that supported expression of the luciferase reporter. […]
# Tumor cells (5×10^4 or 1×10^5 per well, depending on the cell line) were cultured for 24 to 72 hours in 96-well plates (flat-bottom plates for adherent cell lines, U-bottom plates for suspension cell lines). […] MICA or control antibodies were added at different concentrations, and shed MICA/B was then detected in supernatants by ELISA using the Human MICA ELISA kit (Ab59569, Abcam) or Human MICB DuoSet ELISA kit (DY1599, R&D Systems), using the procedures recommended by the manufacturers. […]
# MICA and MICB were detected on the cell surface by the PE-conjugated anti-MICA/B antibody (clone 6D4, 320906, Biolegend). […] All samples were acquired in a BD LSR Fortessa flow cytometer, and analyzed by FlowJo V10 software.
molecule,measurement,setting,value
B1,activity against CT26-MICA lung metastases,[1],demonstrated efficacy in a lung metastasis model
same,IFNγ (cytokine) production by human NK cells,[2],increases NK cell cytotoxicity and cytokine production
same,shed MICA in serum,[3]; B16F10-MICA i.v. in C57BL/6 mice,undetectable; also recorded: reduced shed MICA in the sera
same,therapeutic activity against lung metastases after NK cell or CD8 T cell depletion,"[3]; anti-asGM1, anti-NK1.1 or anti-CD8β","NK cells, but not CD8 T cells, were essential for the therapeutic activity"
same,therapeutic activity in Prf1−/− and Ifng−/− mice,[3]; lung metastases day 14,therapeutic efficacy was lost in perforin (Prf1) but not IFNγ (Ifng) deficient mice; also recorded: Perforin but not interferon-γ expression is required for therapeutic activity
same,stabilization of MICA/B on the surface of tumor cells,[4],most effective in stabilizing MICAS on the surface of tumor cells
